Measurements taken from paper PMC4180971 (Genes & Development, 2014).

Legend:
Est3-(Flag)3 [1] = target: T1, Est3-(Flag)3 (S. cerevisiae, UniProt Q03096 1-181); assay: co-IP
T1 sequence (looked up): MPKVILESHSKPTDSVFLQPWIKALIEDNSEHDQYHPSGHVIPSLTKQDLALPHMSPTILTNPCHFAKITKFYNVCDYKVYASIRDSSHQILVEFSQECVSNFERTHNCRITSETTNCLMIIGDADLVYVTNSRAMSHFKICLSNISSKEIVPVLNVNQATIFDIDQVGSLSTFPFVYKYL

Est3-(Flag)3 [2] = target: T1, Est3-(Flag)3; assay: co-IP; remark: listed apart in the source

B1: Est1-(myc)12 (natural protein, S. cerevisiae, UniProt P17214 1-699, looked up)
chain: MDNEEVNEECMRLFFKNARAHLDKHLTSRLTCDENAYITFRCFLDGIHRKSTRFLEELLLKQENMYHNNNYERINDSVIPLVLKLLWLQIHEPTLQWFEHWFHDIMRLSNRRKFRVFRIFQKKMIQFFKITHRYYYDIIEHLCAKYDMNSVISNALFAKLNLMQYTDGLSTHEKIILNTSNPLTFSIVISLQRCVINLGSTHFYKTLLNKPSNKPKSVEGFEKSIRYLNIASLYLPAVGDTYFQRAKIYLITGKFSLYFFELVRGALVRIPSKCALNNLKDFILTPDFPERRRLMKKLAILVSKDLKGEKSFFEGQIVLQFLSIVEHTLVPQSWNASRASNCWLLKEHLQMAALKYHSGNINVILENLAATMGSFDLMFTTRKSKEQKNKLKYADLSERQVFFLDLSFDFIANIIDVVIKPSWQKNMEDFRYLAIIRLLMCWIKSYRSILQYTHRHRKFCTSFALLLNDLINSPLNCSGNIYSHRPKRSYLFREDIIFREFSCINFALTDFNDDYVYDSPDMINNIIGCPTLTKVLSPKEECVLRIRSIIFSGMKFLEKNDTGVIWNASKYKFDLISPNIKIKRQIALSEISSKINVKTQQERVVSSRKVEAKRDEQQRKRAGKIAVTELEKQFANVRRTKKLSPLPEKDGVSSELVKHAASRGRKTITGPLSSDFLSYPDEAIDADEDITVQVPDTPT
B1 was tested. Which “fold reduction in the tlc1-59 strain against the TLC1 strain” value (Est3-(Flag)3 [1]) did it give?
The value was ~20 fold.

And the “Est1:Est2 ratio in the anti-Est3 immunoprecipitate” value (Est3-(Flag)3 [2])?
The value was ~4 Est1 per Est2.

B2: (myc)12-Est2 (natural protein, S. cerevisiae, UniProt Q06163 1-884, looked up)
chain: MKILFEFIQDKLDIDLQTNSTYKENLKCGHFNGLDEILTTCFALPNSRKIALPCLPGDLSHKAVIDHCIIYLLTGELYNNVLTFGYKIARNEDVNNSLFCHSANVNVTLLKGAAWKMFHSLVGTYAFVDLLINYTVIQFNGQFFTQIVGNRCNEPHLPPKWAQRSSSSSATAAQIKQLTEPVTNKQFLHKLNINSSSFFPYSKILPSSSSIKKLTDLREAIFPTNLVKIPQRLKVRINLTLQKLLKRHKRLNYVSILNSICPPLEGTVLDLSHLSRQSPKERVLKFIIVILQKLLPQEMFGSKKNKGKIIKNLNLLLSLPLNGYLPFDSLLKKLRLKDFRWLFISDIWFTKHNFENLNQLAICFISWLFRQLIPKIIQTFFYCTEISSTVTIVYFRHDTWNKLITPFIVEYFKTYLVENNVCRNHNSYTLSNFNHSKMRIIPKKSNNEFRIIAIPCRGADEEEFTIYKENHKNAIQPTQKILEYLRNKRPTSFTKIYSPTQIADRIKEFKQRLLKKFNNVLPELYFMKFDVKSCYDSIPRMECMRILKDALKNENGFFVRSQYFFNTNTGVLKLFNVVNASRVPKPYELYIDNVRTVHLSNQDVINVVEMEIFKTALWVEDKCYIREDGLFQGSSLSAPIVDLVYDDLLEFYSEFKASPSQDTLILKLADDFLIISTDQQQVINIKKLAMGGFQKYNAKANRDKILAVSSQSDDDTVIQFCAMHIFVKELEVWKHSSTMNNFHIRSKSSKGIFRSLIALFNTRISYKTIDTNLNSTNTVLMQIDHVVKNISECYKSAFKDLSINVTQNMQFHSFLQRIIEMTVSGCPITKCDPLIEYEVRFTILNGFLESLSSNTSKFKDNIILLRKEIQHLQAYIYIYIHIVN
What does the source list for B2?
fold higher co-precipitation in G2/M than in G1 (Est3-(Flag)3 [2]): ~20 fold; fold increase in G2/M against G1 (quaternary complex) (Est3-(Flag)3 [2]): ~20 fold
